In patent US20230064978A1, “CYCLIC PEPTIDE RECEPTOR LANTHIONINE SYNTHETASE C-LIKE PROTEIN (LANCL) AND USES THEREOF” (LATERAL IP PTY LTD, priority 2019, published 2023):
Bridges are numbered along the chain shown (N, C = ends). Where no end group is shown, it is not given here.

Target: Recombinant human 6His-LaNCL1 protein (Homo sapiens, UniProt O43813)
Experiment: In-vitro photolabelling of 6His-LanCL1 and LC-MS/MS to identify binding site
Description: Recombinant human 6His-LaNCL1 protein (2 μM, 1 nmol, 53 μg) in 530 μL PBS was pre-incubated with 50 μM of LAT8881 or DMSO for 10 min and then treated with 25 μM LAT9991-PAL for another 30 min at RT in Nunc™ MicroWell™ 96-well plates (Thermo Fisher Scientific cat #167008) (final reaction volume, 530 μL). The samples were UV-irradiated (365 nm) for 20 min at 4° C. After UV-irradiation, the samples were split in two different samples containing 3 μg or 50 μg of protein.
Protein samples (3 μg protein) were adjusted to 1% SDS and 10 mM DTT. After incubation for 1 h at 56° C., protein samples were treated with 30 mM iodoacetamide for 45 min at RT in the dark. Dry acetone (9 volumes) prechilled to −20° C. was added and the cloudy mixture was vortexed thoroughly and incubated at −20° C. overnight. After centrifugation (15,000×g for 10 min at 4° C.), the supernatants were poured off and the remaining pellets washed with −20° C. acetone. […] After removing the supernatants, the protein pellets were air-dried and dissolved in laemmli buffer, heated at 60° C. for 20 minutes and analyzed by in gel fluorescence scanning […]
Peptides were analyzed by nanoLC-MS/MS with the Ultimate 3000 RSLC (Thermo Fisher Scientific) coupled online to a Q-Exactive Plus mass spectrometer with a NanoFlex source. […]

Chain of Recombinant human 6His-LaNCL1 protein (O43813 with tags, fused parts or gaps): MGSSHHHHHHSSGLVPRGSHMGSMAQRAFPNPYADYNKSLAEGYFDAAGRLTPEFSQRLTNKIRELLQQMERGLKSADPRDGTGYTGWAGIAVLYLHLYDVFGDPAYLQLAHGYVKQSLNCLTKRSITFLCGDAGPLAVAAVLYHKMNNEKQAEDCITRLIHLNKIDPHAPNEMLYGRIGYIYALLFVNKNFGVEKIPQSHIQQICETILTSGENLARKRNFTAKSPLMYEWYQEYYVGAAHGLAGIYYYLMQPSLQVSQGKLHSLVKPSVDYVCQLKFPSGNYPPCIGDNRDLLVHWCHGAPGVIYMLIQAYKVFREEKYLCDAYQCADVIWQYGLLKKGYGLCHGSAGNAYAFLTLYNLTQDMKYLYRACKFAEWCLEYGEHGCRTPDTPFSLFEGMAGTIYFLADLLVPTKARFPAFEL

Modified LANCL1 peptide sequence differentially detected (25 μM probe, dependent peptide MS analysis): IDPHAPNEM(ox)LYGR
Most likely site for localization of the probe adduct on LANCL1 (amino acid residues 171-174 of human LANCL1 (SEQ ID NO:56)): PNEM
Substance: LAT9991-PAL: cyclic peptide of SEQ ID NO:12 (LAT9991) conjugated to the PAL (Photo-Activated Labelling) grouping (CRSVEGSCG; disulfide 1-8 (inferred); also: PAL group on N-terminal Cys-Arg part)
